Assay results published in paper PMC13228514, “The protocadherin-15-LHFPL5 tip link complex is a heterotetrameric assembly in hair cell stereocilia” (Biophysical Journal, 2026).

Tests used:
[1] = target: the molecule itself; test: single-molecule pull-down (SiMPull); solubilized cochlea supernatant of P6 mice applied to slide coated with anti-PCDH15 mAb 8D1; detected with 39G7 Fab-GFP and anti-LHFPL5 mAb-Alexa647 (colocalization) or with 39G7 Fab-GFP or anti-LHFPL5 Fab-GFP (photobleaching steps); TIRF
[2] = target: the molecule itself; test: single-molecule pull-down (SiMPull); purified co-expressed recombinant PCDH15/LHFPL5 complex (100 pM) captured on slide by biotinylated anti-PCDH15 mAb 8D1; detected with 39G7 Fab-GFP and anti-LHFPL5 mAb-Alexa647 (colocalization) or with 39G7 Fab-GFP or anti-LHFPL5 Fab-GFP (photobleaching steps); TIRF; buffer with 0.005% C12M, 0.001% CHS, pH 8.0

Protein | stoichiometry N [1] | stoichiometry N [2]
native protocadherin-15 (PCDH15) from mouse cochlea or utricle (natural protein, protocadherin-15, mouse, endogenous in inner ear tissue; also called native PCDH15; source: endogenous, cochlea or utricle of P6 mice, solubilized (1% C12M, 0.2% CHS), supernatant) not shown | 2 | 
recombinant lipoma HMGIC fusion partner-like protein 5 (LHFPL5), residues 2-219 (natural protein, Mus musculus, UniProt Q4KL25 2-219, looked up, the results call the construct the full-length protein; also called TMHS; recombinant LHFPL5; source: HEK293 tsa201 cells co-infected with PCDH15 (or PCDH15_(1EC)) and LHFPL5 BacMam viruses; purified as a complex (Strep-Tactin, TALON, SEC)) VKLLPAQEAAKIYHTNYVRNSRAVGVMWGTLTICFSVLVMALFIQPYWIGDSVSTPQAGYFGLFSYCVGNVLSSELICKGGPLDFSSIPSRAFKTAMFFVALAMFLIIGSIICFSLFFVCNTATVYKICAWMQLAAATGLMIGCLVYPDGWDSSEVRRMCGEQTGKYTLGHCTIRWAFMLAILSIGDALILSFLAFVLGYRQDKLLPDDYKADGNEEV |  | 2
recombinant protocadherin-15 (PCDH15), residues 1-1462 (EC1-EC11 and part of the cytoplasmic region) (domain or fragment, signal peptide in the construct; also called recombinant PCDH15; source: HEK293 tsa201 cells co-infected with PCDH15 and LHFPL5 BacMam viruses; purified as a complex with LHFPL5 (Strep-Tactin, TALON, SEC)) not shown |  | 2
native lipoma HMGIC fusion partner-like protein 5 (LHFPL5) from mouse cochlea or utricle (natural protein, UniProt Q4KL25 1-219, looked up, LHFPL5 (TMHS), mouse, endogenous in inner ear tissue; also called native LHFPL5; TMHS; source: endogenous, cochlea or utricle of P6 mice, solubilized (1% C12M, 0.2% CHS), supernatant) MVKLLPAQEAAKIYHTNYVRNSRAVGVMWGTLTICFSVLVMALFIQPYWIGDSVSTPQAGYFGLFSYCVGNVLSSELICKGGPLDFSSIPSRAFKTAMFFVALAMFLIIGSIICFSLFFVCNTATVYKICAWMQLAAATGLMIGCLVYPDGWDSSEVRRMCGEQTGKYTLGHCTIRWAFMLAILSIGDALILSFLAFVLGYRQDKLLPDDYKADGNEEV | 2 | 
